In patent US20060057138A1 (published 2006):
Numbering of substitutions follows the chain as printed.

Tests used:
[1] = target: T1, recombinant human Tie1-Fc (Tie1 extracellular domain fused to human Fc) (human, UniProt P35590 25-759); assay: SPR (BIAcore 3000), CM5 chip; format of this row not stated
T1 construct: also called human Tie1-Fc fusion protein; not shown: human Fc
T1 sequence: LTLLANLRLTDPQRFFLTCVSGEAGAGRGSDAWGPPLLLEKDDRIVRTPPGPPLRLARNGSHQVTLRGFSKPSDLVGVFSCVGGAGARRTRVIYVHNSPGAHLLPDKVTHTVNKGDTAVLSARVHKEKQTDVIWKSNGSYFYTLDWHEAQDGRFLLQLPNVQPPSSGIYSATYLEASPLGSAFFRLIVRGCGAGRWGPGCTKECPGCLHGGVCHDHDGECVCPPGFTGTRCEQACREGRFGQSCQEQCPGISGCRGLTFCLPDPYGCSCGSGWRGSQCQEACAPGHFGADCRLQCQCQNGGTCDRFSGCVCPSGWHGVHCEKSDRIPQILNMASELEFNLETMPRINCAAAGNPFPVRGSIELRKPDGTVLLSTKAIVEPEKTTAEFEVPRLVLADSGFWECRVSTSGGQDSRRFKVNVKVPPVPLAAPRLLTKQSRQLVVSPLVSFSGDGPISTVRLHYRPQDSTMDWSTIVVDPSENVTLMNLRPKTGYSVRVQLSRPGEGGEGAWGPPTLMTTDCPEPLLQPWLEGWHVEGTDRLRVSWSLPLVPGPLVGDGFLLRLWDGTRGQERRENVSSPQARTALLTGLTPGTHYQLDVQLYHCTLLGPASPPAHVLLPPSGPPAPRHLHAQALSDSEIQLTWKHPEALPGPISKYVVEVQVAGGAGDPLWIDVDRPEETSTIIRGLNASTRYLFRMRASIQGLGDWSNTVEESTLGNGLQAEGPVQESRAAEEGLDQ
Experimental: (§1) Affinity analysis of the Fab and IgGs was performed using surface plasmon resonance using a BIAcore 3000 instrument. For this analysis both dimeric (Tie1-Fc fusion protein) and monomeric (Tie1-HIS) versions of the extracellular domain of the Tie1 were used. The sensor chips used in these experiments were CM5 (dextran-coated) which allow immobilization of proteins to the chip via standard amine coupling chemistries. The concentration of flowed antibody was determined using a surface plasmon resonance based method. Using a high-density protein A sensor chip, under mass transport limited conditions, the response signal is dependent only on the concentration of the antibody in the sample under test. This approach allows a precise determination of the antibody concentration, a parameter important for accurate determination of the KD.
470 RUs of Tie1 HIS protein were coated on a CM5 sensor chip and 5, 20, 100, and 500 nM of the Fab flowed over the chip at four different flow rates ([…]), rates in which the system is not mass transport limited. Kinetic data was typically determined using a range of analyte concentrations and three different chip coating densities. The data from the lowest coating density that gave a good signal was typically chosen, this was often in a range from 50-100 RUs. Using such low coating densities allowed the sensor curves to be fit using BIAEVALUATION™ 3.0 software to a 1:1 model, often even when using a bivalent analyte (IgG or Tie1-Fc fusion protein). For bivalent analytes, when fit to a 1:1 model was not possible, the curves were fit using a 2:1 model.

[2] = target: T1, recombinant human Tie1-Fc (Tie1 …); assay: SPR, Tie1-Fc immobilized on the sensor chip, Fab as analyte
Experimental: as §1

[3] = target: T2, recombinant mouse Tie1-Fc (mouse, UniProt Q06806 23-755); assay: as above
T2 construct: extracellular domain; also called Mouse Tie 1-Fc antigen; mouse Tie1-Fc fusion protein; not shown: Fc
T2 sequence (looked up): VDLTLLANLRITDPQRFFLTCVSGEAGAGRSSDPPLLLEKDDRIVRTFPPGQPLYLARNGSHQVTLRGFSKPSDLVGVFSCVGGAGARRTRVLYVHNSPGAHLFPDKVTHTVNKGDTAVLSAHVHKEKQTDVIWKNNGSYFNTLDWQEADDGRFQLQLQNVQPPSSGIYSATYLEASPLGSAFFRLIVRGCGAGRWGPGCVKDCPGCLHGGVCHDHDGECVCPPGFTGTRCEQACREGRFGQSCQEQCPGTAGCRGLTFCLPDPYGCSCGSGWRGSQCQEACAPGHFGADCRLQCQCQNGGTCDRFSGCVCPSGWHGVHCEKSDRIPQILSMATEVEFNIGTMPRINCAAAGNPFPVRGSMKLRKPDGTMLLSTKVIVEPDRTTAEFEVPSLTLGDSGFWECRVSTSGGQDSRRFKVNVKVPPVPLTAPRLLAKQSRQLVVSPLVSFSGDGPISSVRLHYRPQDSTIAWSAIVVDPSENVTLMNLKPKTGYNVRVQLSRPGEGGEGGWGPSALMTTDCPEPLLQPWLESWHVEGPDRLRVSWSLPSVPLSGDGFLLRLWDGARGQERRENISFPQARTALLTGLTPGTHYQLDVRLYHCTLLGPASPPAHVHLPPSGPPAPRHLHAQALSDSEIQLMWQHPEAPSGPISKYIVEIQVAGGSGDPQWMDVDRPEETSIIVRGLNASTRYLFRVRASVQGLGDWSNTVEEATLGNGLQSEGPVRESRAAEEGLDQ
Experimental: as §1

[4] = target: T1, recombinant human Tie1-Fc (Tie1 …); assay: SPR, Tie1-Fc immobilized on CM5 sensor chip, bivalent anti-Tie1 as analyte
Experimental: as §1

B1: parental E3 Fab (Fab, V domains shown)
VH: EVQLLESGGGLVQPGGSLRLSCAASGFTFSMYGMVWVRQAPGKGLEWVSVISPSGGNTGYADSVKGRFTISRDNSKNTLYLQVNSLRAEDTAVYYCARAPRGYSYGYYYWGQGTLVTVSS
VL: DIQMTQSPLSLSASVGDRVTITCRASQGIGHYLAWYQQKPGKVPKLLIYTASTLQSGVPSRFSGSGSGTDFTLTINSLQPEDVATYYCQQFNSYPHTFGQGTRLDIK
notes: also called E3 Fab parental; parental Fab E3
Kd [1]: 5.4 nM | koff [1]: 4.47e-05 s⁻¹ | kon [1]: 8260 M⁻¹ s⁻¹

B2: E3b Fab (heavy and light chain germlined E3 Fab) (Fab, V domains shown)
VH: B1 VH with V83M
VL: B1 VL with L9S, N76S, D105E
notes: The germlined heavy variable domain is printed with limits only under DX-2240; also called Fab E3b; germlined (E3b)
Kd [1]: 4.7 nM | koff [1]: 4.41e-05 s⁻¹ | kon [1]: 9300 M⁻¹ s⁻¹ | Kd [2]: ~3 nM | Kd [3]: ~3 nM

B3: DX-2220 (full length, IgG1, germlined human anti-Tie1 antibody E3b) (antibody, V domains shown)
VH: B1 VH with V83M
VL: DIQMTQSPSSLSASVGDRVTITCRASQGIGHYLAWYQQKPGKVPKLLIYTASTLQSGVPSRFSGSGSGTDFTLTISSLQPEDVATYYCQQFNSYPHTFGQGTRLEIKR
notes: also called E3b-IgG1; germlined E3b IgG1
Kd [1]: 5.2 nM | koff [1]: 3.67e-05 s⁻¹ | kon [1]: 7090 M⁻¹ s⁻¹ | Kd [4]: 0.2 nM | fold increase in affinity against the anti-Tie1 Fab [4]: > 10 fold
